Laboratory results from patent publication US20100004431A1 (Xencor, published 2010).
Substitutions are numbered along the chain they refer to. In names and notes the source's numbering stands.

T1: CD25 (R&D systems cat. #223-2A/CF) (UniProt P01589 22-213, limits assumed)
T1 construct: Bought soluble protein
T1 sequence (looked up): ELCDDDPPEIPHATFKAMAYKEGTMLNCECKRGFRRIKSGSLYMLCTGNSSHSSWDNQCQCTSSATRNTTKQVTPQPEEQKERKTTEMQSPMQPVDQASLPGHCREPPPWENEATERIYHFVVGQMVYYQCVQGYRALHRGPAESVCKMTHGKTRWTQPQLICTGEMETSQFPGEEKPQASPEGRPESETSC

B1: anti-CD25 H1.12L1.20 (antibody, V domains shown)
VH: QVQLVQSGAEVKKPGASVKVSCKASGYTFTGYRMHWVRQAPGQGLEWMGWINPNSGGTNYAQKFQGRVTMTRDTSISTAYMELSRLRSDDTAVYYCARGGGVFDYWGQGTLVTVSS
VL: EIVLTQSPATLSLSPGERATLSCRASQSVSYLHWYQQKPGQAPRLLIYTTSNRATGIPARFSGSGSGTDFTLTISSLEPEDFAVYYCHQRSTYPLTFGSGTKLEIK
notes: IgG1 format; It has twenty-two mutations against anti-CD25 H1L1; copies: 2 + 2
B2: anti-CD25 H1.12L1.48 (antibody, IgG1, V domains shown)
VH: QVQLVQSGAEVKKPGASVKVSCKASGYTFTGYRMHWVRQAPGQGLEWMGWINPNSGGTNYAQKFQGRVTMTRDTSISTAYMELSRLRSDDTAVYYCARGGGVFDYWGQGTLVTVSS
VL: B1 VL with L32M
notes: IgG1 format
B3: anti-CD25 H1.14L1.20 (antibody, IgG1, V domains shown)
VH: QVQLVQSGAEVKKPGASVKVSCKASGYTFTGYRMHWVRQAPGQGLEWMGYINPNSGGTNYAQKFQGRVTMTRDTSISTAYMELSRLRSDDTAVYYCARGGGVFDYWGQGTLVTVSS
VL: B1 VL
notes: IgG1 format
B4: anti-CD25 H1.12L1 (antibody, IgG1, V domains shown)
VH: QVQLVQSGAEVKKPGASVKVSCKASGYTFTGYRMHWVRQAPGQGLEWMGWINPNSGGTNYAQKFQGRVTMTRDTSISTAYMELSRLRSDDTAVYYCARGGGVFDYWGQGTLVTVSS
VL: QIVLTQSPATLSLSPGERATLSCRASSSISYMHWFQQKPGQSPQLLIYTTSNLASGVPARFSGSGSGTDYTLTISSLQPEDFAVYYCHQRSTYPLTFGSGTKLEIK
notes: IgG1 format
B5: anti-CD25 H1.23L1.43 (antibody, IgG1, V domains shown)
VH: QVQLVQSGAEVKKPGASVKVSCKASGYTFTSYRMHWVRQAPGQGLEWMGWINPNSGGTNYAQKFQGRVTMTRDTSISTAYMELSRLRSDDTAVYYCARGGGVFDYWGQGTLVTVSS
VL: B1 VL with F70Y, E78Q
notes: IgG1 format
B6: anti-CD25 H1.14L1 (antibody, IgG1, V domains shown)
VH: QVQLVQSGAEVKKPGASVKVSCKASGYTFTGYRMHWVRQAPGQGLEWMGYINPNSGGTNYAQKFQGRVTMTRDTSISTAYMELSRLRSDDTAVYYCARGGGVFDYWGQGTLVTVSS
VL: B4 VL
notes: IgG1 format
B7: anti-CD25 H1.23L1 (antibody, IgG1, V domains shown)
VH: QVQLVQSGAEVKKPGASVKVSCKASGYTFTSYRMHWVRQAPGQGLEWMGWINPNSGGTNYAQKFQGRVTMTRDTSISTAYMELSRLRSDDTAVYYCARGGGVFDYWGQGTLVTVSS
VL: B4 VL
notes: IgG1 format
B8: anti-CD25 H1.22L1 (antibody, IgG1, V domains shown)
VH: QVQLVQSGAEVKKPGASVKVSCKASGYTFTSYRMHWVRQAPGQGLEWMGWINPNSGGTNYAQKFQGRVTITRDTSISTAYMELSRLRSDDTAVYYCARGGGVFDYWGQGTLVTVSS
VL: B4 VL
notes: IgG1 format
B9: anti-CD25 H0L0 (antibody, V domains shown)
VH: QVQLQQSGAELAKPGASVKMSCKASGYTFTSYRMHWVKQRPGQGLEWIGYINPSTGYTEYNQKFKDKATLTADKSSSTAYMQLSSLTFEDSAVYYCARGGGVFDYWGQGTTLTVSS
VL: QIVLTQSPAIMSASPGEKVTITCSASSSISYMHWFQQKPGTSPKLWIYTTSNLASGVPARFSGSGSGTSYSLTISRMEAEDAATYYCHQRSTYPLTFGSGTKLELK
notes: Chimeric form of the anti-TAC antibody, in IgG1 format; also called chimeric anti-CD25 H0L0; anti-TAC H0L0
B10: anti-VEGF H1.33L1.51 (Fab, V domains shown)
VH: QVQLVQSGSELKKPGASVKVSCKASGYTFTNYGMNWVRQAPGQGLEWMGWINTYTGNPTYAQGFTGRFVFSLDTSVSTAYLQISSLKAEDTAVYYCAKYPHYYGSSHWYFDVWGAGTLVTVSS
VL: DIQMTQSPSSLSASVGDRVTITCQASQDISNYLNWYQQKPGKAPKVLIYFTSSLHSGVPSRFSGSGSGTDYTLTISSLQPEDFATYYCQQYDNLPWTFGGGTKLEIK
notes: Fab format, purified by Ni-NTA chromatography
B11: anti-VEGF H1.33L1.55 (Fab, V domains shown)
VH: B10 VH
VL: B10 VL with T51A, S53N, H55E, S56T
notes: as for B10
B12: Anti-TNFα H1.103L1.33 (Fab, V domains shown)
VH: EVQLVESGGGLVQPGGSLKLSCAASGFIFSNHWMNWVRQASGKGLEWVGEIRSKANNYATHYAASVKGRFTISRDDSKNTAYLQMNSLKTEDTAVYYCSRNYYGSTYDYWGQGTLVTVSS
VL: EIVLTQSPDFQSVTPKEKVTITCRASQFIGSSLHWYQQKPDQSPKLLIKYASESFSGVPSRFSGSGSGTDFTLTINSLEAEDAATYYCQQSHSWPFTFGSGTKLEIK
notes: Fab format; It has thirteen more mutations than anti-TNFα H1L1; also called anti-TNF H1.103L1.33
B13: Anti-TNFα H1.101L1.33 (Fab, V domains shown)
VH: B12 VH with N56I, A64E, N79S
VL: B12 VL
notes: Fab format
B14: Anti-TNFα H1.45L1.33 (Fab, V domains shown)
VH: B12 VH with N56I, A64E, N79S, T80I, A81V
VL: B12 VL
notes: Fab format
B15: Anti-TNFα H1.67L1.33 (Fab, V domains shown)
VH: B12 VH with I28T, N56I, N57S
VL: B12 VL
notes: Fab format
B16: Anti-TNFα H1L1 (Fab, V domains shown)
VH: B12 VH with A55S, N56I, Y58S, A64E, N79S, T80I, A81V
VL: B12 VL with E1D, V3L, I29V, L33I, F55M, V58I
notes: Fab format, purified by Ni-NTA chromatography; also called framework optimized anti-TNFα H1L1
B17: anti-VEGF H0L0 (Fab, V domains shown)
VH: EIQLVQSGPELKQPGETVRISCKASGYTFTNYGMNWVKQAPGKGLKWMGWINTYTGEPTYAADFKRRFTFSLETSASTAYLQISNLKNDDTATYFCAKYPHYYGSSHWYFDVWGAGTTVTVSS
VL: DIQMTQTTSSLSASLGDRVIISCSASQDISNYLNWYQQKPDGTVKVLIYFTSSLHSGVPSRFSGSGSGTDYSLTISNLEPEDIATYYCQQYSTVPWTFGGGTKLEIK
notes: also called anti-VEGF H0L0 (murine Fv); murine A4.6.1 Fv
B18: anti-CD25 H1L1.9 (antibody, V domains shown)
VH: B8 VH with W50Y, N54S, S55T, G57Y, N59E, A61N, R72A, T74K
VL: B4 VL with S42A
notes: Single variant in the anti-CD25 H1L1 background; also called VL S43A single variant
B19: anti-CD25 H1L1.16 (antibody, V domains shown)
VH: B8 VH with W50Y, N54S, S55T, G57Y, N59E, A61N, R72A, T74K
VL: B4 VL with F35Y
notes: Single variant in the anti-CD25 H1L1 background; also called VL F36Y single variant
B20: anti-CD25 H1L1.14 (antibody, V domains shown)
VH: B8 VH with W50Y, N54S, S55T, G57Y, N59E, A61N, R72A, T74K
VL: B4 VL with Y70F
notes: Single variant in the anti-CD25 H1L1 background; also called VL Y71F single variant
B21: anti-CD25 H1L1.13 (antibody, V domains shown)
VH: B8 VH with W50Y, N54S, S55T, G57Y, N59E, A61N, R72A, T74K
VL: B4 VL with V57I
notes: Single variant in the anti-CD25 H1L1 background; also called VL V58I single variant

What follows are binders tested against T1, CD25 (R&D systems cat. #223-2A/CF) (assay: Biacore (SPR); antibody captured on Protein A, CD25 injected).
Experimental: (§1) Binding was measured by injection of two-fold serial dilutions of CD25 (0 nM to 50 nM; R&D systems) in buffer at 25° C. with a flow rate of 25-30 μL/min for 2 min followed by a dissociation phase of 4-5 min. Association rates (kₒₙ) and dissociation rates (koff) were calculated using a simple one-to-one Langmuir binding model (BIAcore Evaluation Software version 3.2). The equilibrium dissociation constant (Kd) was calculated as the ratio of koff/kₒₙ).

Row | Kd | koff | kon | Fold change in Kd vs. H0L0 | Binder
1 | 170 pM | 0.00013 s⁻¹ | 750000 M⁻¹ s⁻¹ |  | B1
2 | 150 pM | 0.00012 s⁻¹ | 800000 M⁻¹ s⁻¹ | 1.7 fold | B2
3 | 490 pM | 0.00029 s⁻¹ | 580000 M⁻¹ s⁻¹ | -1.9 fold | B3
4 | 110 pM | 0.00012 s⁻¹ | 1.1e+06 M⁻¹ s⁻¹ | 2.3 fold | B4
5 | 160 pM | 0.00012 s⁻¹ | 730000 M⁻¹ s⁻¹ | 1.6 fold | B5
6 | 360 pM | 0.00028 s⁻¹ | 770000 M⁻¹ s⁻¹ | -1.4 fold | B6
7 | 200 pM | 0.00019 s⁻¹ | 950000 M⁻¹ s⁻¹ | 1.3 fold | B7
8 | 180 pM | 0.00017 s⁻¹ | 980000 M⁻¹ s⁻¹ | 1.5 fold | B8
9 | 260 pM | 0.00018 s⁻¹ | 670000 M⁻¹ s⁻¹ |  | B9

What follows are binders tested against T2, VEGF (UniProt P15692-4 27-191, limits assumed) (assay: SPR (Biacore), VEGF on CM5 chip, Fab injected).
T2 sequence (P15692 other isoform, or with tags, fused parts or gaps limits assumed): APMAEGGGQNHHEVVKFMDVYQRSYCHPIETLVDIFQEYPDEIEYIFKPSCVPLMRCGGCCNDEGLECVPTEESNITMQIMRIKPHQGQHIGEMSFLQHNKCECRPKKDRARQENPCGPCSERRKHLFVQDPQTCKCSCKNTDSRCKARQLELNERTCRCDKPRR
Experimental: (§2) For kinetic analysis of anti-VEGF antibodies, VEGF was coupled to an activated CM5 biosensor chip using standard NHS-EDC chemistry by injecting 200 nM VEGF at a flow rate of 2 μL/min for 10 min. […] Association rates (kₒₙ) and dissociation rates (koff) were calculated using a simple one-to-one Langmuir binding model (BIAcore Evaluation Software version 3.2). The equilibrium dissociation constant (Kd) was calculated as the ratio of koff/kₒₙ.

Row | fold difference in affinity against the chimeric antibody anti-VEGF H0L0 | Binder
10 | ≤ 3 fold | B10
11 | ≤ 3 fold | B11

Each binder was assayed against T3, TNFα (UniProt P01375 77-233) (assay: Biacore (SPR); Fab injected over immobilized TNFα).
T3 sequence (P01375 77-233 limits assumed): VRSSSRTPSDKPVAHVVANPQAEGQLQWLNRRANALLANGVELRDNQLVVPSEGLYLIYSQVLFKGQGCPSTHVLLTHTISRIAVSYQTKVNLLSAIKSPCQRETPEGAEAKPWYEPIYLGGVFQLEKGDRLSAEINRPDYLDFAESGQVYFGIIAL
Experimental: (§3) For kinetic analysis of anti-TNFα antibodies, TNFα was coupled to an activated CM5 biosensor chip using standard NHS-EDC chemistry by injecting 200 nM TNFα at a flow rate of 2 μL/min for 10 min. […] For subsequent cycles, the chip was regenerated using pH4.0 acetate buffer. Association rates (kₒₙ) and dissociation rates (koff) were calculated using a simple one-to-one Langmuir binding model (BIAcore Evaluation Software version 3.2). The equilibrium dissociation constant (Kd) was calculated as the ratio of koff/kₒₙ.

Row | Fold affinity change relative to H0L0 | Binder
12 | -1.3 fold | B12

What follows are binders tested against T3, TNFα (assay: SPR (Biacore), TNFα on CM5 chip, Fab injected).
Experimental: as §3

Row | fold difference in affinity against the chimeric antibody anti-TNFα H0L0 | Binder
13 | ≤ 3 fold | B13
14 | ≤ 3 fold | B14
15 | ≤ 3 fold | B12
16 | ≤ 3 fold | B15

These binders were tested against T3, TNFα (assay: SPR (Biacore), TNFα on CM5 chip, Fab injected; mean of two runs ± SD).
Experimental: as §3

Row | Kd | koff | kon | Binder
17 | 3900 pM | 0.000874 s⁻¹ | 223000 M⁻¹ s⁻¹ | B13
18 | 1900 pM | 0.00116 s⁻¹ | 605000 M⁻¹ s⁻¹ | B16
19 | 1800 pM | 0.00087 s⁻¹ | 489000 M⁻¹ s⁻¹ | B14
20 | 3100 pM | 0.00092 s⁻¹ | 292000 M⁻¹ s⁻¹ | B12
21 | 3800 pM | 0.000776 s⁻¹ | 200000 M⁻¹ s⁻¹ | B15

What follows are binders tested against T1, CD25 (R&D systems cat. #223-2A/CF) (assay: SPR (Biacore)).
Experimental: as §1

Row | fold tighter binding than anti-CD25 H0L0 | fold tighter binding than anti-CD25 H1L1 | Binder
22 | ~1.5 fold |  | B1
23 |  | 5.9 fold | B2
24 |  | 1.8 fold | B3
25 |  | 8 fold | B4
26 |  | 2.4 fold | B6
27 |  | 4.4 fold | B7
28 |  | 4.9 fold | B8

Each binder was assayed against T2, VEGF (assay: Biacore (SPR); Fab injected over immobilized VEGF).
Experimental: as §2

Row | Fold change in Kd vs. H0L0 | Kd | koff | kon | Binder
29 | -2.5 fold | 3500 pM | 0.00029 s⁻¹ | 83000 M⁻¹ s⁻¹ | B10
30 | -2.7 fold | 3800 pM | 0.00028 s⁻¹ | 80000 M⁻¹ s⁻¹ | B11
31 |  | 1400 pM | 0.00017 s⁻¹ | 134000 M⁻¹ s⁻¹ | B17

Each binder was assayed against T1, CD25 (R&D systems cat. #223-2A/CF) (assay: Biacore blocking assay; antibody injected over CD25 coupled to a CM5 chip, then 100 nM rh-IL2; blocked ligand IL-2).
Experimental: The chip was regenerated after each cycle by injection of glycine buffer @ pH 1.5 for 30 sec at 10 μL/min.

Row | IC50 (read off the curve) | Binder
32 | ~40000 pM | B1
33 | ~40000 pM | B5
34 | ~40000 pM | B9

Biological target: T1, CD25 (R&D systems cat. #223-2A/CF)
Assay: Biacore (SPR); antibody captured on Protein A, CD25 injected
Remark: another data set of the same source
Experimental: as §1

Row | Fold change in Kd vs. H1L1 | Kd | koff | kon | Binder
35 | 1 fold | 310 pM | 0.00058 s⁻¹ | 1.9e+06 M⁻¹ s⁻¹ | B18
36 | 1.2 fold | 260 pM | 0.00042 s⁻¹ | 1.6e+06 M⁻¹ s⁻¹ | B19
37 | 1.2 fold | 270 pM | 0.00048 s⁻¹ | 1.8e+06 M⁻¹ s⁻¹ | B20
38 | -1.1 fold | 350 pM | 0.0006 s⁻¹ | 1.7e+06 M⁻¹ s⁻¹ | B21
39 |  | 90 pM | 0.00013 s⁻¹ | 1.6e+06 M⁻¹ s⁻¹ | B9

Biological target: T2, VEGF
Assay: Biacore (SPR); Fab injected over immobilized VEGF
Remark: another data set of the same source
Experimental: as §2

Row | Fold affinity change relative to H0L0 | Binder
40 | -2.7 fold | B11

The binders below were run against T1, CD25 (R&D systems cat. #223-2A/CF) (assay: SPR (Biacore), antibody captured on Protein A, CD25 injected; separate runs).
Experimental: as §1

Row | Kd | Binder
41 | 90 to 300 pM | B9
